Reference: patent US20240116984A1 (UNIVERSITY OF NOTRE DAME DU LAC, published 2024)
Starred links: 1 amine or outer side, 2 acyl side, 3 side chain; linkers in the order of their positions; H or OH if unused. Non-standard residues stand in square brackets, D forms with d. Primed or numbered codes have the meaning given here. aTyr = Tyr with backbone N-amino (N-aminated amide nitrogen), NN([C@@H](Cc1ccc(O[*:3])cc1)C(=O)[*:2])[*:1]; aIle′ = Ile with backbone N-amino (N-aminated amide nitrogen), CC[C@H](C)[C@@H](C(=O)[*:2])N(N)[*:1]; aVal = Val with backbone N-amino (N-aminated amide nitrogen), CC(C)[C@@H](C(=O)[*:2])N(N)[*:1]; N(NH2)Lys = NCCCC[C@H](NN)C(=O)O

B1: Compound 4, Ac-aVal-Gln-aIle-Ile-Asn-Lys-NH2 (peptide)
peptide: Ac-[aVal]Q[aIle′]INK-NH2
SMILES: CC[C@H](C)[C@H](NC(=O)[C@H]([C@@H](C)CC)N(N)C(=O)[C@H](CCC(N)=O)NC(=O)[C@H](C(C)C)N(N)C(C)=O)C(=O)N[C@@H](CC(N)=O)C(=O)N[C@@H](CCCCN)C(N)=O
B2: Compound 6, Ac-Val-Gln-aIle-Val-Tyr-Lys-NH2 (peptide)
peptide: Ac-VQ[aIle′]VYK-NH2
SMILES: CC[C@H](C)[C@@H](C(=O)N[C@H](C(=O)N[C@@H](Cc1ccc(O)cc1)C(=O)N[C@@H](CCCCN)C(N)=O)C(C)C)N(N)C(=O)[C@H](CCC(N)=O)NC(=O)[C@@H](NC(C)=O)C(C)C
B3: Compound 13, Ac-Val-Gln-Ile-aVal-Tyr-aLys-NH2 (peptide)
peptide: Ac-VQI[aVal]Y[N(NH2)Lys]-NH2
SMILES: CC[C@H](C)[C@H](NC(=O)[C@H](CCC(N)=O)NC(=O)[C@@H](NC(C)=O)C(C)C)C(=O)N(N)[C@H](C(=O)N[C@@H](Cc1ccc(O)cc1)C(=O)N(N)[C@@H](CCCCN)C(N)=O)C(C)C
B4: Compound 5, Ac-aVal-Gln-Ile-Val-Tyr-Lys-NH2 (peptide)
peptide: Ac-[aVal]QIVYK-NH2
SMILES: CC[C@H](C)[C@H](NC(=O)[C@H](CCC(N)=O)NC(=O)[C@H](C(C)C)N(N)C(C)=O)C(=O)N[C@H](C(=O)N[C@@H](Cc1ccc(O)cc1)C(=O)N[C@@H](CCCCN)C(N)=O)C(C)C
B5: Compound 2, Ac-Val-Gln-aIle-Ile-Asn-Lys-NH2 (peptide)
peptide: Ac-VQ[aIle′]INK-NH2
SMILES: CC[C@H](C)[C@H](NC(=O)[C@H]([C@@H](C)CC)N(N)C(=O)[C@H](CCC(N)=O)NC(=O)[C@@H](NC(C)=O)C(C)C)C(=O)N[C@@H](CC(N)=O)C(=O)N[C@@H](CCCCN)C(N)=O
B6: Compound 12, Ac-Val-Gln-aIle-Val-aTyr-Lys-NH2 (peptide)
peptide: Ac-VQ[aIle′]V[aTyr]K-NH2
SMILES: CC[C@H](C)[C@@H](C(=O)N[C@H](C(=O)N(N)[C@@H](Cc1ccc(O)cc1)C(=O)N[C@@H](CCCCN)C(N)=O)C(C)C)N(N)C(=O)[C@H](CCC(N)=O)NC(=O)[C@@H](NC(C)=O)C(C)C

What follows are binders tested against Human tauP301L (0N4R), recombinant, N-terminal His tag (human, UniProt P10636 2-758) (assay: cell-based or functional assay).
Sequence of Human tauP301L (0N4R), recombinant, N-terminal His tag (P10636 other isoform, or with tags, fused parts or gaps): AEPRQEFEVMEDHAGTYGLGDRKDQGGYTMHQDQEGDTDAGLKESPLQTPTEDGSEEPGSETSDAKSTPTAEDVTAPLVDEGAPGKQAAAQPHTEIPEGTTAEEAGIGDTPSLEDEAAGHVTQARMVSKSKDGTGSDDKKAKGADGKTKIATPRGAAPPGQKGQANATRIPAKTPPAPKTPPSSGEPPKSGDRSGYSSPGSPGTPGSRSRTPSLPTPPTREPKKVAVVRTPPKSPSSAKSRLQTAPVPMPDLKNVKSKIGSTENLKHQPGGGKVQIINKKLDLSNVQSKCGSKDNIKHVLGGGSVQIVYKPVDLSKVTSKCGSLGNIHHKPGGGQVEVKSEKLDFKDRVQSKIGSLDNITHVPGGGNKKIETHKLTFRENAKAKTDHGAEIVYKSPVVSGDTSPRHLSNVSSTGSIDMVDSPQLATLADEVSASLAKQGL

Binder	end-point ThT fluorescence of heparin-induced tau aggregation (Tau 10 µM: Inhibitor 20 µM, 48 h) [%]	fibril capping IC50 in cells (mature tauP301L fibrils incubated 36 h with inhibitor, then HEK293 tau-RD(LM)-YFP cells) [µM]
B1	≤ 50	
B2	≤ 50	
B3	≤ 50	~5
B4	≤ 50	
B5	≤ 50	
B6	≤ 50	~5
